Measurements as given in patent publication US20190015515A1.

Assays:
[1] = target: glucose transporter 1 (GLUT1) on human red blood cells (hRBCs) (human) (UniProt P11166); assay: loading of 1x10^8 RBCs with 0.5 mg/mL Glu-Insulin overnight, ELISA
[2] = target: glucose transporter 4 (GLUT4) on mouse red blood cells (mRBCs) or mRBC membranes (mouse) (UniProt P14142); assay: as above
[3] = target: glucose transporter 4 (GLUT4) on mouse red blood cells (mRBCs) or mRBC membranes (mouse) (UniProt P14142); assay: flow cytometry (MFI) of Glu-FITC-insulin attached mRBCs treated with free glucose
[4] = target: glucose transporter 4 (GLUT4) on mouse red blood cells (mRBCs) or mRBC membranes (mouse) (UniProt P14142); assay: ELISA of insulin bound to mRBCs
[5] = target: glucose transporter 4 (GLUT4) on mouse red blood cells (mRBCs) or mRBC membranes (mouse) (UniProt P14142); assay: ELISA of insulin released from Glu-Insulin loaded mRBCs at 37 C

UniProt P14142, sequence (P14142 whole entry): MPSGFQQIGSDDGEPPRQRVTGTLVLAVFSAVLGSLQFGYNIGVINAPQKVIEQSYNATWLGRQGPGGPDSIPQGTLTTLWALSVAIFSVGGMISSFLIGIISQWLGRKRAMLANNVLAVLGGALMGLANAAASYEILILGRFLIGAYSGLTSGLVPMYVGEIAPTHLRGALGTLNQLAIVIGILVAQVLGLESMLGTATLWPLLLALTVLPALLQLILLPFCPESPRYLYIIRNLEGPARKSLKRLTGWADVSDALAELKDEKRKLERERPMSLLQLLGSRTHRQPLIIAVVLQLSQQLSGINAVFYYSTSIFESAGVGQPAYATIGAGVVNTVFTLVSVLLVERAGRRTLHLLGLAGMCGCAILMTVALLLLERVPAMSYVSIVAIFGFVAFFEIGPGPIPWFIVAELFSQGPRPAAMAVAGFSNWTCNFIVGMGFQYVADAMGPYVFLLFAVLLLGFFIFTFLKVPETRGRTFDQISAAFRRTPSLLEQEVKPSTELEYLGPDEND
UniProt P11166, sequence (P11166 whole entry): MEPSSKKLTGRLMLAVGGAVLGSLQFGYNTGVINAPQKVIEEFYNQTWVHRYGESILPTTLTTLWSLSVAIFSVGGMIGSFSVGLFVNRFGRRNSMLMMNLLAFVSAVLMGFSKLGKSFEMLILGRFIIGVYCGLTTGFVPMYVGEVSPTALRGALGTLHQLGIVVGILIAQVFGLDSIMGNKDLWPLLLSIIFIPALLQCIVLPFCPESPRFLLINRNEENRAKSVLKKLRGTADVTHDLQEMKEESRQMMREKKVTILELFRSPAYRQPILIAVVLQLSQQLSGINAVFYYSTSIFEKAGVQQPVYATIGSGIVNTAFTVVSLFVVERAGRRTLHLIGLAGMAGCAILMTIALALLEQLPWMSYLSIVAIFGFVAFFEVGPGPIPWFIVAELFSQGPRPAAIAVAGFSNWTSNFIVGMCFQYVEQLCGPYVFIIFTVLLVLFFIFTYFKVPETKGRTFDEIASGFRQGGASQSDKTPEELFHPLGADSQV

percent of Glu-Insulin bound [1]: 60%
percent of Glu-Insulin bound [2]: 20%
decrease of insulin signal on mRBCs at 400 mg/dL glucose [3]: 50%
loaded insulin per cell [4]: < 5e-13 g per cell
percent released from mRBCs at 400 mg/dL glucose within 2 h [5]: 50%
Substance: glucose-modified insulin (Glu-Insulin) (from UniProt P01308 90-110; P01308 25-54) (ligand)
